# Assay results reported in patent US20240417476A1 (ATYR PHARMA, published 2024).
# Ends that are not written are not given here.
# T1: human NRP2b expressed on Expi293F cells (human)
# T1 construct: also called full length NRP2b
# T1 chain: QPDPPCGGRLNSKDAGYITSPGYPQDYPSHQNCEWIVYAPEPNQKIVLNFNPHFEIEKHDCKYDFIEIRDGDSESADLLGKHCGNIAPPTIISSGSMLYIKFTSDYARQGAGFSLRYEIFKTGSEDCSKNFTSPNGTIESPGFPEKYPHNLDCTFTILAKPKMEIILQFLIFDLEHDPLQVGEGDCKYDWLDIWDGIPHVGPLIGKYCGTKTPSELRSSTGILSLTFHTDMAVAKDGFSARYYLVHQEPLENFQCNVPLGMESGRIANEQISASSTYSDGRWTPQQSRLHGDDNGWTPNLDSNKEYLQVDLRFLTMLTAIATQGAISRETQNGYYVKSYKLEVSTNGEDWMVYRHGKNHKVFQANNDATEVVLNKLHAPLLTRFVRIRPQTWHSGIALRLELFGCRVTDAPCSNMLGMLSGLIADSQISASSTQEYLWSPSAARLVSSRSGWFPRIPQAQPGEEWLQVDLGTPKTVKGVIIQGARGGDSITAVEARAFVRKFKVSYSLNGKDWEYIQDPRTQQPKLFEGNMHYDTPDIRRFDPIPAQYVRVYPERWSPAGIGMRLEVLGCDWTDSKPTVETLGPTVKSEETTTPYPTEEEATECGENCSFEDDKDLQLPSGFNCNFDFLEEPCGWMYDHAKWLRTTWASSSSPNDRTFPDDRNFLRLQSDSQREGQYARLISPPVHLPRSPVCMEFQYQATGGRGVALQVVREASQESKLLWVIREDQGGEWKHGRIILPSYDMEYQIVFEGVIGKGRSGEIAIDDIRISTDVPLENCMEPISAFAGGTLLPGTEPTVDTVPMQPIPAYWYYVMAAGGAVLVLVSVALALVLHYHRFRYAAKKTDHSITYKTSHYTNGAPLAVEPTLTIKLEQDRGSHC
# T2: NRP2b peptide (biotinylated) (human, biotin-conjugated, site not stated)
# T2 construct: also called NRP2b isoform specific peptide
# T2 peptide: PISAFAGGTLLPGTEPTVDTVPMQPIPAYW
# T3: NRP2v3
# T3 construct: not the NanoLuc-tagged construct m33; also called human NRP2 v3 expressed on Expi293F cells; NRP2a v3
# T3 chain: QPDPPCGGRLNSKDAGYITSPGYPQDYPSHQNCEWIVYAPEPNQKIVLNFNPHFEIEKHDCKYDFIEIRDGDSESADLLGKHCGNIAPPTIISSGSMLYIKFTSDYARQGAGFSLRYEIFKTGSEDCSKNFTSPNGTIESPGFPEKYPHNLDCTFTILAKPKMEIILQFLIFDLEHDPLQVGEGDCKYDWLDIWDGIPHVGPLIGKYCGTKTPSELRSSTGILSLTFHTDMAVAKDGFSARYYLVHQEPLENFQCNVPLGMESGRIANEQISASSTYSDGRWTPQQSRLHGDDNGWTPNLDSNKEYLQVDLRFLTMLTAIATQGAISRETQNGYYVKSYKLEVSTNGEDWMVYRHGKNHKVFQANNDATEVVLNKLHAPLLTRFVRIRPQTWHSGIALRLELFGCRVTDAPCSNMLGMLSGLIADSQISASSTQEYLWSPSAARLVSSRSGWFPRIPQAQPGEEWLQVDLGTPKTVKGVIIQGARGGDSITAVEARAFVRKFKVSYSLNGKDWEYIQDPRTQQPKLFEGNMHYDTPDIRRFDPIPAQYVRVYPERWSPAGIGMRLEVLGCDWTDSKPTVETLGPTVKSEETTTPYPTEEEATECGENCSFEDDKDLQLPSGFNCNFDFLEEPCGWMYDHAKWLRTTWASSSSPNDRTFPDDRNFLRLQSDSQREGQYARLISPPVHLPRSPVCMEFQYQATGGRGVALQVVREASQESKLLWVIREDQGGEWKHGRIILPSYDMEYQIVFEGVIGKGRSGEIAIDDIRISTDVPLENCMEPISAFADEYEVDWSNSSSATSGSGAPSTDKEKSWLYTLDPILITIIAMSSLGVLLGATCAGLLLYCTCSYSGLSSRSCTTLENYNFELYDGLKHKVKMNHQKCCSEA
# T4: Mid-NRP2A peptide (biotinylated) (human, biotin-conjugated, site not stated)
# T4 peptide: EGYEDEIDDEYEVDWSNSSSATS
# T5: NRP2a_scan 5 peptide (biotinylated) (human, also: biotin-conjugated, site not given here)
# T5 peptide: EDEIDDEYEVDW
# T6: NRP2a_scan 2 peptide (biotinylated) (human, also: biotin-conjugated, site not given here)
# T6 peptide: PEIHEREGYEDE
# T7: NRP2a_scan 7 peptide (biotinylated) (human, also: biotin-conjugated, site not given here)
# T7 peptide: EYEVDWSNSSSA
# T8: Mid-mNRP2A peptide (biotinylated) (mouse, biotin-conjugated, site not stated)
# T8 peptide: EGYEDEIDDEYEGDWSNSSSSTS
# T9: NRP2a_scan 1 peptide (biotinylated) (human, also: biotin-conjugated, site not given here)
# T9 peptide: VDIPEIHEREGY
# T10: NRP2a_scan 4 peptide (biotinylated) (human, also: biotin-conjugated, site not given here)
# T10 peptide: EGYEDEIDDEYE
# T11: NRP2a_scan 6 peptide (biotinylated) (human, also: biotin-conjugated, site not given here)
# T11 peptide: IDDEYEVDWSNS
# T12: NRP2a_scan 3 peptide (biotinylated) (human, also: biotin-conjugated, site not given here)
# T12 peptide: HEREGYEDEIDD
# B1: aNRP2-405v2 (antibody, V domains shown)
# VH: EVMLVESGGGLVKPGGSLKLSCAASGFTFRRYAMSWVRQTPEKGLEWVATITSGGSYTYYLDSVKGRITISRDNAKNTLYLQMSSLRSEDTAMYYCARHGIYGGFDYWGQGTTLTVSS
# VL: DVLMTQTPLSLPVSLGDQASISCRSSQSIVHSDGNTYLEWYLQKPGQSPNLLIYKVSNRFSGVPDRFSGSGSGTDFTLKISRVEAEDLGIYYCFQGSHVPFTFGSGTKLEIK
# notes: Mouse monoclonal
# B2: aNRP2-408v2 (antibody, V domains shown)
# VH: EVKLVESGGGLVKPGGSLKLSCAASGFTFSSYAMSWVRQTPEKRLEWVASISRGSITYYPDSVKGRFTISRDNAGNILYLQMSSLRSEDTAMYYCAREYYYAMDYWGQGTSVTVSS
# VL: DIQMTQSPSSLSASLGERVSLTCRASQDIGSRLNWLQQEPDGTIKRLIYATSSLDSGVPKRFSGSRSGSDYSLTISSLESEDFVDYYCLQYASSPYTFGGGTKLEIK
# notes: Mouse monoclonal
# B3: aNRP2-409v3 (antibody, V domains shown)
# VH: EVQFVETGGGLVQPKGSLKLSCAASGFTFNTNAMNWVRQAPGKGLEWVARIRTKSNNYATYYADSVKDRFTISRDDSQNILYLQMNNLKTEDTAMYYCVTLDSSGYVWFAYWGQGTLVTVSA
# VL: B2 VL
# notes: Mouse monoclonal; also called 409 v2; aNRP2-409v2
# B4: aNRP2-403v2 (antibody, V domains shown)
# VH: QVQLQQPGAELVKPGASVKLSCKASGYTFTSYWMHWVKQRPGRGLEWIGRIDPNSGDTKYNEKFKSKATLTVDKPSSTAYMQVSSLTSEDSAVYYCARSYDYALEYWGQGTSVTVSS
# VL: DVVMTQTPLSLPVSLGDQASISCRSSQSLVHSNGNTYLHWFLQKPGQSPNLLIYKVSNRFSGVPDRFSGSGSGTDFTLKISRVEAEDLGVYFCSQNTRVPRTFGGGTKLEIK
# notes: Mouse monoclonal
# Tests used:
# [1] = target: T13, mNRP2A peptide (biotinylated) (mouse, biotin-conjugated, site not stated); assay: BLI, peptide on sensor, 50 nM antibody
# T13 construct: also called mouse NRP2 isoform a peptide
# [2] = target: T1, human NRP2b expressed on Expi293F cells; assay: flow cytometry, Expi293F cells transfected with the target, fluorescent anti-mouse secondary; MFI signal relative to mock-transfected cells
# Method: (§1) Signal to noise was calculated as the staining intensity of transfected cells compared to an un-transfected ‘mock’ population.
# [3] = target: T2, NRP2b peptide (biotinylated); assay: peptide ELISA
# NRP2v3 = target: T3, NRP2v3; assay: flow cytometry, Expi293F cells transfected with the target, fluorescent anti-mouse secondary; MFI signal relative to mock-transfected cells
# Method: as §1
# [4] = target: Short NRP2A peptide (biotinylated) (human, biotin-conjugated, site not stated); assay: BLI, peptide on sensor;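 further: octet RED96e biolayer interferometry with biotin-conjugated NRP2 peptides spanning isoform-specific regions (human and mouse) loaded on biosensors, antibodies applied at 50 nM, association read over 300 s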
# [5] = target: T4, Mid-NRP2A peptide (biotinylated); assay: BLI, peptide on sensor;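 further: octet RED96e biolayer interferometry with biotin-conjugated NRP2 peptides spanning isoform-specific regions (human and mouse) loaded on biosensors, antibodies applied at 50 nM, association read over 300 s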
# Method: (§2) Biolayer interferometry (BLI) experiments were carried out on an Octet RED96e instrument (Sartorius) to further characterize antibody affinities to the NRP2 peptides screened above. Antibodies were epitope mapped using peptides that span the NRP2a isoform specific region; antibodies were also tested for reactivity to an NRP2b isoform specific peptide and cross-reactivity to mNRP2a and mNRP2b peptides (see Table E2 for peptide sequences).
# (§3) Antibodies and peptides were diluted in 1×PBS, 0.1% BSA, 0.02% Tween 20, pH 7.4. […] The biosensors were then dipped into 50 nM solutions of each antibody and read for 300s. The biosensors were regenerated in 10 mM glycine, pH 1.5 in between cycles of different antibodies.
# [6] = target: T5, NRP2a_scan 5 peptide (biotinylated); assay: BLI, peptide on sensor;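 further: octet RED96e biolayer interferometry with biotin-conjugated NRP2 peptides spanning isoform-specific regions (human and mouse) loaded on biosensors, antibodies applied at 50 nM, association read over 300 s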
# Method: as §2, §3
# [7] = target: T6, NRP2a_scan 2 peptide (biotinylated); assay: BLI, peptide on sensor;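 further: octet RED96e biolayer interferometry with biotin-conjugated NRP2 peptides spanning isoform-specific regions (human and mouse) loaded on biosensors, antibodies applied at 50 nM, association read over 300 s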
# Method: as §2, §3
# [8] = target: T7, NRP2a_scan 7 peptide (biotinylated); assay: BLI, peptide on sensor
# Method: as §2, §3
# [9] = target: T8, Mid-mNRP2A peptide (biotinylated); assay: BLI, peptide on sensor
# Method: as §2, §3
# [10] = target: T9, NRP2a_scan 1 peptide (biotinylated); assay: BLI, peptide on sensor
# Method: as §2, §3
# [11] = target: T10, NRP2a_scan 4 peptide (biotinylated); assay: BLI, peptide on sensor
# Method: as §2, §3
# [12] = target: T11, NRP2a_scan 6 peptide (biotinylated); assay: BLI, peptide on sensor
# Method: as §2, §3
# [13] = target: mNRP2b peptide (biotinylated) (mouse, biotin-conjugated, site not stated); assay: BLI, peptide on sensor
# Sequence of mNRP2b peptide (biotinylated) (mouse, biotin-conjugated, site not stated) (peptide, as listed by the source): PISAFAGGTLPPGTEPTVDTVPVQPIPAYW
# [14] = target: T12, NRP2a_scan 3 peptide (biotinylated); assay: BLI, peptide on sensor
# Method: as §2, §3
# [15] = target: T14, NRP2A peptide (biotinylated) (human, biotin-conjugated, site not stated); assay: BLI, isoform peptide on sensor, 50 nM antibody
# T14 construct: also called NPR2A; NRP2a specific peptide
# [16] = target: T15, human NRP2a v2 expressed on Expi293F cells (human, UniProt O60462 23-931); assay: flow cytometry, Expi293F cells transfected with the target, fluorescent anti-mouse secondary; MFI signal relative to mock-transfected cells
# T15 construct: cDNA Origene RCC220706; also called NRP2 v2
# Method: as §1
# [17] = target: T4, Mid-NRP2A peptide (biotinylated); assay: BLI, peptide on sensor, 50 nM antibody
# [18] = target: T5, NRP2a_scan 5 peptide (biotinylated); assay: BLI, peptide on sensor, 50 nM antibody
# [19] = target: T11, NRP2a_scan 6 peptide (biotinylated); assay: BLI, peptide on sensor, 50 nM antibody
Binder,binding result [1],binding result [2],binding result [3],binding result (NRP2v3),binding result [4],binding result [5],binding result [6],binding result [7],binding result [8],binding result [9],binding result [10],binding result [11],binding result [12],binding result [13],binding result [14],binding result [15],binding result [16],binding result [17],binding result [18],binding result [19]
B1,binds,no binding,no binding (tested: <3x blank),no binding,no binding (tested: 50 nM),no binding (tested: 50 nM),no binding (tested: 50 nM),no binding (tested: 50 nM),no binding (tested: 50 nM),no binding (tested: 50 nM),no binding (tested: 50 nM),no binding (tested: 50 nM),no binding (tested: 50 nM),no binding (tested: 50 nM),no binding (tested: 50 nM),binds,,,,
B2,binds,no binding,no binding (tested: <3x blank),no binding,no binding (tested: 50 nM),no binding (tested: 50 nM),no binding (tested: 50 nM),no binding (tested: 50 nM),no binding (tested: 50 nM),no binding (tested: 50 nM),no binding (tested: 50 nM),no binding (tested: 50 nM),no binding (tested: 50 nM),no binding (tested: 50 nM),no binding (tested: 50 nM),binds,binds,,,
B3,,no binding,no binding (tested: <3x blank),no binding,no binding (tested: 50 nM),no binding (tested: 50 nM),no binding (tested: 50 nM),no binding (tested: 50 nM),no binding (tested: 50 nM),no binding (tested: 50 nM),no binding (tested: 50 nM),no binding (tested: 50 nM),no binding (tested: 50 nM),no binding (tested: 50 nM),no binding (tested: 50 nM),,,,,
B4,,,no binding (tested: <3x blank),,no binding (tested: 50 nM),,,no binding (tested: 50 nM),no binding (tested: 50 nM),,no binding (tested: 50 nM),no binding (tested: 50 nM),,no binding (tested: 50 nM),no binding (tested: 50 nM),binds,,binds,binds,binds
